The values that follow come from US20150165065A1 (AVIDBIOTICS, published 2015).

Assay [1] addresses T1, integrin αVβ5 (UniProt P06756 31-992; P18084 24-719).
T1 construct: Coated on the ELISA plate
As to the kind of experiment: phage ELISA, coated integrin, anti-M13-HRP. The method, then: (§1) The ELISA assays of the integrin target-binding of M13 phages displaying α3 domains with binding peptide inserts grafted into more than one loop were performed as follows. After the respective integrins were adhered to the bottoms of the wells of the ELISA plate, the wells were washed and blocked. Each sample (100 μl) of phage preparation was added to wells containing αVβ3 or αVβ5, incubated and washed. The phages captured by the integrins were detected by HRP-conjugated antibody to the M13 phage coat developed with Ultra TMB-ELISA substrate and the optical densities read.

Assay [2] deals with T2, integrin αVβ3 (UniProt P06756 31-992; P05106 27-718).
T2 construct: Coated on the ELISA plate
T2 sequence (P06756 31-992, chain 1 of 2): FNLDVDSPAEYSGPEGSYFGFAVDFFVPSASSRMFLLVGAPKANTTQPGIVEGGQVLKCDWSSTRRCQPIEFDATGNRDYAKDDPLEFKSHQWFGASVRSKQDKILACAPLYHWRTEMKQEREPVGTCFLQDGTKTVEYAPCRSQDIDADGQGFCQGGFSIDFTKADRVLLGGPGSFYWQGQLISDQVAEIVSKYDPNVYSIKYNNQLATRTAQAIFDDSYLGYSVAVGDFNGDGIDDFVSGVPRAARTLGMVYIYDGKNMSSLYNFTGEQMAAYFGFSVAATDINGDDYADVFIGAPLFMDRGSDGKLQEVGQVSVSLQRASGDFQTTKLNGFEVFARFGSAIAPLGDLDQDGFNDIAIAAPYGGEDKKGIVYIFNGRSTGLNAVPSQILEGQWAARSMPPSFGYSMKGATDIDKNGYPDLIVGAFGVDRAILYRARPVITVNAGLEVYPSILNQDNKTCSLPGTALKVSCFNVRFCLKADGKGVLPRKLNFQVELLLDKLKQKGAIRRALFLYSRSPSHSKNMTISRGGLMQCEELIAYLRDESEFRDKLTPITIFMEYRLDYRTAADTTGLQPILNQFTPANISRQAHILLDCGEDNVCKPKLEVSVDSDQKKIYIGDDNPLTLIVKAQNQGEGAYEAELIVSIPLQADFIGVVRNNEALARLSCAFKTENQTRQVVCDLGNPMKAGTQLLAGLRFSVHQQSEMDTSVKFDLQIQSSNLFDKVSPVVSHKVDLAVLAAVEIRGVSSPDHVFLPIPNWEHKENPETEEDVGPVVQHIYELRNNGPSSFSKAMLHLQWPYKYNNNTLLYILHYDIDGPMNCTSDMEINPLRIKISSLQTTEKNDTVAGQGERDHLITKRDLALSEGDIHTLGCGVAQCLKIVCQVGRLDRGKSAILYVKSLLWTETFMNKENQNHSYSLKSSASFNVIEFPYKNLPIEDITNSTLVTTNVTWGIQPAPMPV
T2 sequence (P05106 27-718, chain 2 of 2): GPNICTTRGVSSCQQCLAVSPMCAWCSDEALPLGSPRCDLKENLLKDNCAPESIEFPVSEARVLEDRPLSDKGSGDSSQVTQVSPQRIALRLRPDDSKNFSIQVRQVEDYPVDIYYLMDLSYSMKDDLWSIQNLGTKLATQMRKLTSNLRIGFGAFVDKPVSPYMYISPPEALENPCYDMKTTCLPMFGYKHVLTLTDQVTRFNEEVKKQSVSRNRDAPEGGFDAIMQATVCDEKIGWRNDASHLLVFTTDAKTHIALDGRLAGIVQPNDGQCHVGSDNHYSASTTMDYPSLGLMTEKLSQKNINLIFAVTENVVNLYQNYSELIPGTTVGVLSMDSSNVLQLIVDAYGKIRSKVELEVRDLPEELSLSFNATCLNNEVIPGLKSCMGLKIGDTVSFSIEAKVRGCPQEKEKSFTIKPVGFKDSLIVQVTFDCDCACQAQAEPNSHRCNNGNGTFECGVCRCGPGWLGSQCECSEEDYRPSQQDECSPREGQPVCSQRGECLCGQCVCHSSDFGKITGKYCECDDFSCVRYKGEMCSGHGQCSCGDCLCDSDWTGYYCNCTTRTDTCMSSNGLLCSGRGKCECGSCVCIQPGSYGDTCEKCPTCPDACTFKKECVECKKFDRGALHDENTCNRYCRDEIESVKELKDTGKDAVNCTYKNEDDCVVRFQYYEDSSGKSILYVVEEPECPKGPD
As to the kind of experiment: phage ELISA, coated integrin, anti-M13-HRP. The method, then:
as §1
(ELISA stands for enzyme-linked immunosorbent assay.)

Assay [3] addresses T1, integrin αVβ5. As to the kind of experiment: phage ELISA, coated integrin, anti-M13-HRP. As for the experimental part: (§2) The phage vectors were independently transformed into NEBαF′tet competent E. coli cells. Phages produced by the transformed cells were tittered and their concentrations adjusted by dilution to 10¹³ per ml. The ability of the soluble MICA molecules in each of the phage preparations was assayed by an ELISA using the intended target proteins, integrin αVβ3 or αVβ5, as capture agents on the ELISA plate. After the respective integrins were adhered to the bottoms of the wells of the ELISA plate, the wells were washed and blocked, as well known in the field. Each sample (100 μl) of phage preparation was added to wells containing αVβ3 or αVβ5, incubated and washed. The phages captured by the integrins were detected by HRP-conjugated antibody to the M13 phage coat developed with Ultra TMB-ELISA substrate and the optical densities read.
This is another data set of the same source.

Assay [4] deals with T2, integrin αVβ3. As to the kind of experiment: phage ELISA, coated integrin, anti-M13-HRP. As for the experimental part:
as §2
The source holds these as a separate data set.

The next assay has as its target the targeted integrin. As to the kind of experiment: cell-based or functional assay.
Assay [5] deals with T1, integrin αVβ5. As to the kind of experiment: ELISA, coated integrin, anti-MICA-HRP. The method, then: (§3) ELISA assays of the integrin target-binding of soluble MICA molecules generated from pKK128-131 were performed as follows. After the respective integrins were adhered to the bottoms of the wells of the ELISA plate, the wells were washed and blocked. Each sample (100 μl) of culture supernatant was added to wells containing αVβ3 or αVβ5, incubated and washed. The soluble MICA molecules captured by the integrins were detected by HRP-conjugated antibody to human MICA developed with Ultra TMB-ELISA substrate and the optical densities read. The quantity of soluble MICA in each sample was determined by the MICA-specific ELISA.

Assay [6] deals with T2, integrin αVβ3. As to the kind of experiment: ELISA, coated integrin, anti-MICA-HRP. The method, then: as §3

T1 sequence (P06756 31-992, chain 1 of 2): as the sequence (P06756 31-992, chain 1 of 2) above
T1 sequence (P18084 24-719, chain 2 of 2): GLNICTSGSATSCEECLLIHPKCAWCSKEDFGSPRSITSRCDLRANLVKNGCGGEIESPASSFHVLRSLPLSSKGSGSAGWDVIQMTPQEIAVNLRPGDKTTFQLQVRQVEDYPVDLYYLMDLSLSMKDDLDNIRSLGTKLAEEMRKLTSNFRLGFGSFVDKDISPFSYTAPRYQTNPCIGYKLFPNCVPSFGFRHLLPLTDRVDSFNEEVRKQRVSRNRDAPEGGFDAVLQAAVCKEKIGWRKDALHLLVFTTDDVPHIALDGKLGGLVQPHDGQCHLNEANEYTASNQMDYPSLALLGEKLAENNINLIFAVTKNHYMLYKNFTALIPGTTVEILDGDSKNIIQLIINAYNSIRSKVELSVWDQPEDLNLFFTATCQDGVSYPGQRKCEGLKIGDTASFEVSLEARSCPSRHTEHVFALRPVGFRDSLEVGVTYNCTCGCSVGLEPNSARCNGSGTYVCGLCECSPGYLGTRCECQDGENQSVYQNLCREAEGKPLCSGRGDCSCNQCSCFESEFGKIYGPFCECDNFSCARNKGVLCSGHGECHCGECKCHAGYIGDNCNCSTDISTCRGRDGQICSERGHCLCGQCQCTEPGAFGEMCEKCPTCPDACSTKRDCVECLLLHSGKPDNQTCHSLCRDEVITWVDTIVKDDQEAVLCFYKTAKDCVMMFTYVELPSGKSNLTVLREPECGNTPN

B1: M13 phage pKK136 displaying MICA α3 domain with loop 1 insert 5.1sp and loop 3 insert 3.2sp (designed binder)
chain: TVPPMVNVTSGGSGGGSVTRGDTFTQSSGGSGGGVTCRASGFYPWNITLSWRQDGVSLSHDTQQWGDVLPDGNGTYQTWVATRISGGSGGGSTSRGDHPRTQSGGSGGGCYMEHSGNHSTHPVPSGK
notes: also called 1-5.1sp/3-3.2sp; not shown: C-terminal portion of M13 gene III protein, fused at codon position 198
For B1, the αvβ5 signal with integrin αVβ5 [1] came out at 4.28 OD. In addition, the αvβ3 signal in the assay with integrin αVβ3 [2] came out at 2.46 OD.

B2: M13 phage pKK138 displaying MICA α3 domain with loop 1 insert 5.1sp and loop 3 insert 5.3sp (designed binder)
chain: TVPPMVNVTSGGSGGGSVTRGDTFTQSSGGSGGGVTCRASGFYPWNITLSWRQDGVSLSHDTQQWGDVLPDGNGTYQTWVATRISGGSGGGSHLARGDDLTYSGGSGGGCYMEHSGNHSTHPVPSGK
notes: also called 1-5.1sp/3-5.3sp; not shown: C-terminal portion of M13 gene III protein, fused at codon position 198
B2 came in with a αvβ5 signal with integrin αVβ5 [1] of 2.75 OD. The same molecule came in with a αvβ3 signal in the assay with integrin αVβ3 [2] of 0.886 OD.

B3: M13 phage pKK139 displaying MICA α3 domain with loop 1 insert 5.1sp and loop 3 insert 5.1spNH (designed binder)
chain: TVPPMVNVTSGGSGGGSVTRGDTFTQSSGGSGGGVTCRASGFYPWNITLSWRQDGVSLSHDTQQWGDVLPDGNGTYQTWVATRISGGSGGGSVTRGDTFTQSSGGSGGGCYMEHSGNHSTHPVPSGK
notes: also called 1-5.1sp/3-5.1spNH; not shown: C-terminal portion of M13 gene III protein, fused at codon position 198
B3: in the assay with integrin αVβ5 [1], the αvβ5 signal came to 5.36 OD. In the assay with integrin αVβ3 [2], this molecule came in with a αvβ3 signal of 2.48 OD.

B4: M13 phage pKK106 displaying wild type MICA α3 domain fused to pIII (other)
chain: TVPPMVNVTRSEASEGNITVTCRASGFYPWNITLSWRQDGVSLSHDTQQWGDVLPDGNGTYQTWVATRICQGEEQRFTCYMEHSGNHSTHPVPSGK
notes: also called WT; not shown: C-terminal portion of M13 gene III protein, fused at codon position 198
Take B4: the αvβ5 signal with integrin αVβ5 [1] and with integrin αVβ5 [3] was 0 OD in each case. For the same molecule, the αvβ3 signal with integrin αVβ3 [2] and in the assay with integrin αVβ3 [4] was 0 OD throughout.

B5: soluble MICA generated from pKK131 (loop 1 extended 5.1sp, loop 3 extended 5.1spNH) (designed binder)
chain: HHHHHHEPHSLRYNLTVLSWDGSVQSGFLTEVHLDGQPFLRCDRQKCRAKPQGQWAEDVLGNKTWDRETRDLTGNGKDLRMTLAHIKDQKEGLHSLQEIRVCEIHEDNSTRSSQHFYYDGELFLSQNLETEEWTMPQSSRAQTLAMNVRNFLKEDAMKTKTHYHAMHADCLQELRRYLKSGVVLRRTVPPMVNVTSGGSGGGSVTRGDTFTQSSGGSGGGVTCRASGFYPWNITLSWRQDGVSLSHDTQQWGDVLPDGNGTYQTWVATRISGGSGGGSVTRGDTFTQSSGGSGGGCYMEHSGNHSTHPVPSGK
Take B5: in the assay with the targeted integrin, the green fluorescent signal from live MCF cells; 64 pg targeted MICA, NK 5:1 was found to be 5180 fluorescence; the green fluorescent signal from live MCF cells; 64 pg targeted MICA, NK 10:1 amounted to 3700 fluorescence; the green fluorescent signal from live MCF cells; 64 pg targeted MICA, no NK cells is 5030 fluorescence; the green fluorescent signal from live MCF cells; 128 pg targeted MICA, NK 5:1 worked out at 3460 fluorescence. In the assay with the targeted integrin, this molecule displayed a green fluorescent signal from live MCF cells; 128 pg targeted MICA, NK 10:1 of 2190 fluorescence; a red fluorescent signal from (dead) MCF cells; 64 pg targeted MICA, NK 5:1 of 27 fluorescence; a red fluorescent signal from (dead) MCF cells; 64 pg targeted MICA, NK 10:1 of 31 fluorescence; a red fluorescent signal from (dead) MCF cells; 64 pg targeted MICA, no NK cells of 19.9 fluorescence. Also, in the assay with the targeted integrin, the red fluorescent signal from (dead) MCF cells; 128 pg targeted MICA, NK 5:1 was 25.6 fluorescence and the red fluorescent signal from (dead) MCF cells; 128 pg targeted MICA, NK 10:1 is 41 fluorescence.

B6: soluble MICA generated from pKK130 (loop 1 extended 5.1sp, loop 3 extended 5.3sp) (designed binder)
chain: HHHHHHEPHSLRYNLTVLSWDGSVQSGFLTEVHLDGQPFLRCDRQKCRAKPQGQWAEDVLGNKTWDRETRDLTGNGKDLRMTLAHIKDQKEGLHSLQEIRVCEIHEDNSTRSSQHFYYDGELFLSQNLETEEWTMPQSSRAQTLAMNVRNFLKEDAMKTKTHYHAMHADCLQELRRYLKSGVVLRRTVPPMVNVTSGGSGGGSVTRGDTFTQSSGGSGGGVTCRASGFYPWNITLSWRQDGVSLSHDTQQWGDVLPDGNGTYQTWVATRISGGSGGGSHLARGDDLTYSGGSGGGCYMEHSGNHSTHPVPSGK
notes: From pKK115 (from pKK46: His6, Glu125); secreted by 293T cells; also called 1-5.1sp/3-5.3sp
In the assay with integrin αVβ5 [5], B6 registered a αvβ5 signal of 0.832 OD and a αvβ5 signal/ng of 26.9 signal/ng MICA. For the same molecule, in the assay with integrin αVβ3 [6], the αvβ3 signal was determined as 0.606 OD and the αvβ3 signal/ng stood at 19.6 signal/ng MICA.

B7: soluble MICA generated from pKK128 (loop 1 extended 5.1sp, loop 3 extended 3.2sp) (designed binder)
chain: HHHHHHEPHSLRYNLTVLSWDGSVQSGFLTEVHLDGQPFLRCDRQKCRAKPQGQWAEDVLGNKTWDRETRDLTGNGKDLRMTLAHIKDQKEGLHSLQEIRVCEIHEDNSTRSSQHFYYDGELFLSQNLETEEWTMPQSSRAQTLAMNVRNFLKEDAMKTKTHYHAMHADCLQELRRYLKSGVVLRRTVPPMVNVTSGGSGGGSVTRGDTFTQSSGGSGGGVTCRASGFYPWNITLSWRQDGVSLSHDTQQWGDVLPDGNGTYQTWVATRISGGSGGGSTSRGDHPRTQSGGSGGGCYMEHSGNHSTHPVPSGK
notes: From pKK115 (from pKK46: His6, Glu125); secreted by 293T cells; also called 1-5.1sp/3-3.2sp
As to B7, in the assay with integrin αVβ5 [5], the αvβ5 signal was determined as 1 OD and the αvβ5 signal/ng was 28.3 signal/ng MICA. In the assay with integrin αVβ3 [6], the αvβ3 signal is 0.811 OD and the αvβ3 signal/ng was 22.9 signal/ng MICA.
